According to the supplement of paper PMC10567573:

B1: ZNF649 (parent)
chain: YHTGKTPFVCPECGQPCSQKSGLI
B2: KRT18 (parent)
chain: RVRSLETENRRLESKIREHLEKKG

Variants of: B1
Assay: protein stability index of a GFP-peptide fusion (GPS, HEK-293T) (PSI 1-6); higher = more stable
Conditions: c terminus: a fixed tail appended
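Note: lentivirally expressed fusions sorted by FACS into six bins by GFP to DsRed ratio, PSI derived from sequencing read proportions per bin multiplied by bin number.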

Variant	protein stability index
YHTGKTPFVCPECGQPCSQKSGYI	1.72
YHTGKTPFVCPECGQPCSQKSGLD	1.36
YHTGKTPFVCPECGQPCSQKSGLV	1.67
YHTGKTPFVCPECGQPCSQKSGLE	2.12
YHTGKTPFVCPECGQPCSQKSGLF	2.92
YHTGKTPFVCPECGQPCSQKSGLT	2.01
YHTGKTPFVCPECGQPCSQKSGLA	1.08
YHTGKTPFVCPECGQPCSQKSGLH	2.42
YHTGKTPFVCPECGQPCSQKSGLQ	2.33
YHTGKTPFVCPECGQPCSQKSGLC	3.08
YHTGKTPFVCPECGQPCSQKSGLP	1.54
YHTGKTPFVCPECGQPCSQKSGLY	1.59
YHTGKTPFVCPECGQPCSQKSGLK	1.84
YHTGKTPFVCPECGQPCSQKSGLL	1.52
YHTGKTPFVCPECGQPCSQKSGLG	2.94
YHTGKTPFVCPECGQPCSQKSGLM	1.84
YHTGKTPFVCPECGQPCSQKSGLN	1.99
YHTGKTPFVCPECGQPCSQKSGLS	1.45

Variants of: B2
Assay: as above
Conditions: c terminus: a fixed tail appended

Variant	protein stability index
RVRSLEYENRRLESKIREHLEKKG	4.47
RVRSLERENRRLESKIREHLEKKG	4.1
RVRSLEVENRRLESKIREHLEKKG	3.82
RVRILETENRRLESKIREHLEKKG	2.97
RVRHLETENRRLESKIREHLEKKG	3.84
RVRRLETENRRLESKIREHLEKKG	4.29
RVRELETENRRLESKIREHLEKKG	4.48
RVRPLETENRRLESKIREHLEKKG	4.58
RVRYLETENRRLESKIREHLEKKG	3.3
RVRKLETENRRLESKIREHLEKKG	4.26
RVRFLETENRRLESKIREHLEKKG	4.29
RVRGLETENRRLESKIREHLEKKG	4.35
RVRSLETENRRYESKIREHLEKKG	4.91
RVRSLETENRRHESKIREHLEKKG	5.05
RVRSLETENRRIESKIREHLEKKG	4.77
RVRSLETENRRPESKIREHLEKKG	5.41
RVRSLETENRRVESKIREHLEKKG	4.69
RVRSLETENRRGESKIREHLEKKG	5.35
RVRSLETENRRNESKIREHLEKKG	5.35
RVRSLETENRRTESKIREHLEKKG	5.22
RVRSLETEMRRLESKIREHLEKKG	2.85
RVRSLETEARRLESKIREHLEKKG	2.73
RVRSLETEFRRLESKIREHLEKKG	2.3
RVRSLETERRRLESKIREHLEKKG	3.81
RVRSLETEYRRLESKIREHLEKKG	3.85
RVRSLETELRRLESKIREHLEKKG	1.79

Variant	protein stability index
RVRSLETEHRRLESKIREHLEKKG	4.51
RVRSLETEQRRLESKIREHLEKKG	4.74
RVRSLETEIRRLESKIREHLEKKG	2
RVRSLETEGRRLESKIREHLEKKG	3.48
RVRSLETENRRLESKIREHLEKKH	4.48
RVRSLETENRRLESKIREHLEKKQ	4.14
RVRSLETENRRLESKIREHLEKKR	3.81
RVRSLETENRRLESKIREHLEKKC	3.69
RVRSLETENRRLESKIREHLEKKN	4.61
RVRSLETENRRLESKIREHLEKKW	4.04
RVRSLETENRRLESKIREHLEKKM	3.73
RVRSLETENRRLESKYREHLEKKG	4.63
RVRSLETENRRLESKTREHLEKKG	4.29
RVRSLETENRRLESKSREHLEKKG	5.16
RVRSLETENRRLESKNREHLEKKG	5.56
RVRSLETENGRLESKIREHLEKKG	4.68
RVRSLETENKRLESKIREHLEKKG	4.36
RVRSLETENIRLESKIREHLEKKG	4.42
RVRSLETENYRLESKIREHLEKKG	4.94
RVRSLETENLRLESKIREHLEKKG	4.49
RVRSLETENHRLESKIREHLEKKG	4.74
RVRSLETENMRLESKIREHLEKKG	5.26
RVRSLETENCRLESKIREHLEKKG	4
RVRSLETENRRLESKIREHLIKKG	3.9
RVRSLETENRRLESKIREHLSKKG	4.36
RVRSLETENRRLESKIREHLWKKG	3.32

Variant	protein stability index
RVRSLETENRRLESKIREHLNKKG	4.11
RVRSLETENRRLESKIREHLAKKG	4.21
RVRSLETENRRLESKIREHLKKKG	3.75
RVRSLETENRRLESKIREHLFKKG	3.67
RYRSLETENRRLESKIREHLEKKG	4.54
RIRSLETENRRLESKIREHLEKKG	4.21
RLRSLETENRRLESKIREHLEKKG	3.55
RQRSLETENRRLESKIREHLEKKG	4.44
RKRSLETENRRLESKIREHLEKKG	4.77
RDRSLETENRRLESKIREHLEKKG	4.83
RWRSLETENRRLESKIREHLEKKG	3.9
RPRSLETENRRLESKIREHLEKKG	4.65
RERSLETENRRLESKIREHLEKKG	5.32
RVRSLETENRRLESKIREDLEKKG	5.22
RVRSLETENRRLESKIREGLEKKG	5.48
RVRSLETENRRLESKIRENLEKKG	4.78
RVRSLETENRRLESKIREFLEKKG	4
RVRSLETENRRLESKIRECLEKKG	3.82
RVRSLETENRRLESKIREELEKKG	5.26
RVRSLETENRRLESKIREHLEMKG	3.73
RVRSLETENRRLESKIREHLETKG	4.45
RVRSLETENRRLESKIREHLEIKG	3.85
RVRSLETENRRLESKIREHLECKG	4.61
RVRSLETENRRLESKIREHLENKG	4.09
